Article PMC4600729

What was measured:
[1] = biological target: taxol-stabilized microtubules (polymer of alpha/beta-tubulin), immobilized; assay: single-molecule TIRF microscopy; Kin5_18GFP landing on and dissociating from the lattice of an immobilized microtubule in 1 mM ADP; exponential fit of binding durations
[2] = biological target: taxol-stabilized microtubules (polymer of alpha/beta-tubulin), immobilized; assay: single-molecule TIRF microscopy; spiking experiment, crowded conditions: pM GFP-labelled motor mixed with 15-25 nM unlabelled motor; binding durations at plus ends of taxol-stabilized microtubules
[3] = biological target: taxol-stabilized microtubules (polymer of alpha/beta-tubulin), immobilized; assay: single-molecule TIRF microscopy; GFP-labelled motor (25 pM) in 1 mM ATP on immobilized taxol-stabilized microtubules; pause lifetimes at plus ends, exponential fit; BRB80 pH 6.8

Sequence of taxol-stabilized microtubules (polymer of alpha/beta-tubulin), immobilized (P68363 whole entry, chain 1 of 2): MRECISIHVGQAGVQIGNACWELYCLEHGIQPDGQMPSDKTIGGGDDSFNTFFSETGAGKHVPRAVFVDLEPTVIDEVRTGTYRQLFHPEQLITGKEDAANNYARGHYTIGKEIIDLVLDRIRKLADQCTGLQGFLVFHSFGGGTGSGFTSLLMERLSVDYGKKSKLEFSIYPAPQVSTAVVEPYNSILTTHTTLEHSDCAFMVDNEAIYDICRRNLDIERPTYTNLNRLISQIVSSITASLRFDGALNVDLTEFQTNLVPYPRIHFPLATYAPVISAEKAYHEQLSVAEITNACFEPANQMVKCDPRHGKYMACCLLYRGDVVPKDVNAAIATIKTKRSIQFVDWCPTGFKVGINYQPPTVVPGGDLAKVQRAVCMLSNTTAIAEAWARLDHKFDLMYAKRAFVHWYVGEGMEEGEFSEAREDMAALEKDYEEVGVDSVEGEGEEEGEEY
Sequence of taxol-stabilized microtubules (polymer of alpha/beta-tubulin), immobilized (A8K068 whole entry, chain 2 of 2, further chain): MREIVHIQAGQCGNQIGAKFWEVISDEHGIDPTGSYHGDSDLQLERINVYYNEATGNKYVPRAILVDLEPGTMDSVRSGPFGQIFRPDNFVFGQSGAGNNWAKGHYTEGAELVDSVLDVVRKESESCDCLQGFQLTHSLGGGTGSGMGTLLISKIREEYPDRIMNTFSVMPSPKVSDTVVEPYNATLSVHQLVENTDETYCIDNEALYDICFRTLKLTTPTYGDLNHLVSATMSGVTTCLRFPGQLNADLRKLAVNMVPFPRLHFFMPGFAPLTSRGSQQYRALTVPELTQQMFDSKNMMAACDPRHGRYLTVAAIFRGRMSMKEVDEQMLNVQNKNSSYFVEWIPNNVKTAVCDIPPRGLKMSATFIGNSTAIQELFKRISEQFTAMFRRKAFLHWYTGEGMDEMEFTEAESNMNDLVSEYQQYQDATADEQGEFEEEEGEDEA

“Kin5_18GFP (dimeric kinesin-5: motor domain and native 18-residue neck linker of Xenopus laevis Eg5 fused to the proximal coiled coil of Drosophila conventional kinesin heavy chain, GFP-tagged)” was tested, and the mean binding duration on the microtubule lattice in 1 mM ADP [1] was 1.07 s, the end duration at plus ends under crowded conditions [2] was 2.26 s and the mean pause duration at plus ends [3] was 7 s.
